Experimental data: patent publication US10683335B2, “Freeze-dried preparation containing high-purity PTH and method for producing same” (ASAHI KASEI PHARMA CORPORATION, priority 2011, dated 2020)
Each block holds one compound with its values, some of them ahead of it.

How the values were obtained:
[1] = Ozone exposure forced degradation of human PTH (1-34) solution (Test Example 2); type: physicochemical; conditions: solution with sucrose and sodium chloride, stirred; ozone approximately 0.08 ppm, about 20 hours
Description: A quantity of 4.00 g of sucrose and 0.20 g of sodium chloride were weighed out and dissolved by adding water for injection to make a placebo solution. […] An environment having an ozone concentration of approximately 0.08 ppm by ozone concentration meter was produced using an ozone generator and a blower (initial wind speed approximately 7.2 m/s) to circulate the ozone and make the concentration uniform in a tray having a 40 cm long×90 cm wide×100 cm high glass door. Approximately 15 mL of the reaction stock solution was dispensed into each 20 mL vial. […] Furthermore, the purity was confirmed in accordance with the test conditions of Test Example 1. The degraded solution was freeze dried, and a solution dissolved by a suitable amount of water for injection was taken as a forced-degradation solution. The analogs were fractionated under the following conditions using this solution.

[2] = HPLC area percentage method: amount of PTH analogs in freeze-dried preparations and bulk drug (Test Example 1); type: physicochemical; conditions: human PTH (1-34) bulk drug lot, HPLC peak area %
Description: The area percentage method using HPLC is a simple method for assessing the purity of a freeze-dried preparation containing PTH peptide and the amount of analogs. A solution obtained by weighing out 0.25 g of benzalkonium chloride and bringing it to 50 mL by adding 50 mM sulfate buffer (pH 2.3) serves as the loading buffer. Each preparation of the examples and comparative examples is dissolved by 1 mL of physiological saline solution, and a 9:1 mixture of this solution and the loading buffer serves as the sample solution. A quantity of 100 μL of sample solution is tested by HPLC under the following conditions. Furthermore, benzalkonium chloride was used to prevent the peptide that is the target of measurement from attaching to the instrument and the like.
Detector: Ultraviolet absorptiometer (measurement wavelength: 214 nm)
Column: Stainless steel tube 150 mm long having an inner diameter of 4.6 mm packed with 3.5 μm of octadecylsilylated silica gel
Column temperature: Constant temperature near 40° C.
Mobile phase: Mobile phase A: Dissolve 28.4 g of anhydrous sodium sulfate in 900 mL of water and bring to 1000 mL by adding water after adding phosphoric acid to adjust the pH to 2.3. Add 100 mL of acetonitrile to this 900 mL of liquid.
Mobile phase B: Dissolve 28.4 g of anhydrous sodium sulfate in 900 mL of water and bring to 1000 mL by adding water after adding phosphoric acid to adjust the pH to 2.3 Add 500 mL of acetonitrile to 500 mL of this liquid.
Mobile phase feed: Concentration gradient control is provided by varying the mixture ratio of mobile phase A and mobile phase B as follows.
Sample temperature: Constant temperature near 5° C.
Detection time: 45 minutes after injection of the sample solution. However, this is from the back of the solvent peak.
Calculation method: The amount of each PTH analog and the total amount thereof was determined by performing liquid chromatography under the above conditions, measuring each peak area by automatic integration, and performing calculation using Formulas 1 and 2. Furthermore, the total peak area was the sum total of the area of all peaks detected by performing liquid chromatography under the above conditions. […] Amount of each PTH analog (%)=(peak area of each analog/total peak area)×100 Formula 1: Total amount of PTH analogs (%)=(sum total of peak areas of each analog/total peak area)×100 Formula 2:

Purity after exposure to ozone atmosphere [1]: approximately 20%
Total amount of human PTH (1-34) analogs after exposure to ozone atmosphere [1]: 80%
Compound: CC[C@H](C)[C@H](NC(=O)[C@H](CCC(=O)O)NC(=O)[C@H](CO)NC(=O)[C@@H](NC(=O)[C@@H](N)CO)C(C)C)C(=O)N[C@@H](CCC(N)=O)C(=O)N[C@@H](CC(C)C)C(=O)N[C@@H](CCSC)C(=O)N[C@@H](Cc1cnc[nH]1)C(=O)N[C@@H](CC(N)=O)C(=O)N[C@@H](CC(C)C)C(=O)NCC(=O)N[C@@H](CCCCN)C(=O)N[C@@H](Cc1cnc[nH]1)C(=O)N[C@@H](CC(C)C)C(=O)N[C@@H](CC(N)=O)C(=O)N[C@@H](CO)C(=O)N[C@@H](CCSC)C(=O)N[C@@H](CCC(=O)O)C(=O)N[C@@H](CCCN=C(N)N)C(=O)N[C@H](C(=O)N[C@@H](CCC(=O)O)C(=O)N[C@@H](Cc1c[nH]c2ccccc12)C(=O)N[C@@H](CC(C)C)C(=O)N[C@@H](CCCN=C(N)N)C(=O)N[C@@H](CCCCN)C(=O)N[C@@H](CCCCN)C(=O)N[C@@H](CC(C)C)C(=O)N[C@@H](CCC(N)=O)C(=O)N[C@@H](CC(=O)O)C(=O)N[C@H](C(=O)N[C@@H](Cc1cnc[nH]1)C(=O)N[C@@H](CC(N)=O)C(=O)N[C@@H](Cc1ccccc1)C(=O)O)C(C)C)C(C)C [Human PTH (1-34)]

Compound: human PTH (1-34) [lot A]
Amount of (6) Human PTH (1-34)-Met 8 [O] ([2]; listed as A): 0.08%

Compound: human PTH (1-34) [lot B]
Amount of (6) Human PTH (1-34)-Met 8 [O] ([2]; listed as B): 0.07%
Amount of (7) Human PTH (1-34)-Met 18 [O] ([2]; listed as B): 0.09%

Compound: human PTH (1-34) [lot D]
Amount of (6) Human PTH (1-34)-Met 8 [O] ([2]; listed as D): 0.05%
Amount of (7) Human PTH (1-34)-Met 18 [O] ([2]; listed as D): 0.06%

Compound: human PTH (1-34) [lot E]
Amount of (6) Human PTH (1-34)-Met 8 [O] ([2]; listed as E): 0.05%
Amount of (7) Human PTH (1-34)-Met 18 [O] ([2]; listed as E): 0.07%

Compound: human PTH (1-34) [lot F]
Amount of (6) Human PTH (1-34)-Met 8 [O] ([2]; listed as F): 0.14%
Amount of (7) Human PTH (1-34)-Met 18 [O] ([2]; listed as F): 0.21%

Compound: human PTH (1-34) [lot G]
Amount of (6) Human PTH (1-34)-Met 8 [O] ([2]; listed as G): 0.17%
Amount of (7) Human PTH (1-34)-Met 18 [O] ([2]; listed as G): 0.23%

Compound: human PTH (1-34) [lot H]
Amount of (6) Human PTH (1-34)-Met 8 [O] ([2]; listed as H): 0.06%
Amount of (7) Human PTH (1-34)-Met 18 [O] ([2]; listed as H): 0.09%
